Reference: paper PMC8280820, “Phospho‐regulation, nucleotide binding and ion access control in potassium‐chloride cotransporters” (The EMBO Journal, 2021)

B1: KCC3b-PM (human potassium-chloride cotransporter KCC3 isoform B, phospho-mimetic S45D/T940D/T997D, M1-S1099) (natural protein, UniProt Q9UHW9-2 1-1099, looked up)
chain: MPHFTVTKVEDPEEGAAASISQEPSLADIKARIQDSDEPDLSQNDITGEHSQLLDDGHKKARNAYLNNSNYEEGDEYFDKNLALFEEEMDTRPKVSSLLNRMANYTNLTQGAKEHEEAENITEGKKKPTKTPQMGTFMGVYLPCLQNIFGVILFLRLTWVVGTAGVLQAFAIVLICCCCTMLTAISMSAIATNGVVPAGGSYFMISRALGPEFGGAVGLCFYLGTTFAAAMYILGAIEIFLVYIVPRAAIFHSDDALKESAAMLNNMRVYGTAFLVLMVLVVFIGVRYVNKFASLFLACVIVSILAIYAGAIKSSFAPPHFPVCMLGNRTLSSRHIDVCSKTKEINNMTVPSKLWGFFCNSSQFFNATCDEYFVHNNVTSIQGIPGLASGIITENLWSNYLPKGEIIEKPSAKSSDVLGSLNHEYVLVDITTSFTLLVGIFFPSVTGIMAGSNRSGDLKDAQKSIPIGTILAILTTSFVYLSNVVLFGACIEGVVLRDKFGDAVKGNLVVGTLSWPSPWVIVIGSFFSTCGAGLQSLTGAPRLLQAIAKDNIIPFLRVFGHSKANGEPTWALLLTAAIAELGILIASLDLVAPILSMFFLMCYLFVNLACALQTLLRTPNWRPRFRYYHWALSFMGMSICLALMFISSWYYAIVAMVIAGMIYKYIEYQGAEKEWGDGIRGLSLSAARFALLRLEEGPPHTKNWRPQLLVLLKLDEDLHVKHPRLLTFASQLKAGKGLTIVGSVIVGNFLENYGEALAAEQTIKHLMEAEKVKGFCQLVVAAKLREGISHLIQSCGLGGMKHNTVVMGWPNGWRQSEDARAWKTFIGTVRVTTAAHLALLVAKNISFFPSNVEQFSEGNIDVWWIVHDGGMLMLLPFLLKQHKVWRKCSIRIFTVAQLEDNSIQMKKDLATFLYHLRIEAEVEVVEMHDSDISAYTYERDLMMEQRSQMLRHMRLSKTERDREAQLVKDRNSMLRLTSIGSDEDEETETYQEKVHMDWTKDKYMASRGQKAKSMEGFQDLLNMRPDQSNVRRMHTAVKLNEVIVNKSHEAKLVLLNMPGPPRNPEGDENYMEFLEVLTEGLERVLLVRGGGSEVITIYS
modifications: phosphorylated at S685, T727, S930 and Y1070 (by proteomics analysis; the paper says likely only in a subset of the particles for some sites); not phosphorylated at T106/T109
notes: KCC3 (SLC12A6), human, isoform B (KCC3b), residues M1-S1099 (printed length 1099); numbers count on: the B-isoform; Synthesized gene (GenScript, Twist Bioscience) subcloned into pHTBV with C-terminal twin-strep, 10-His and GFP; also called KCC3‐PM; KCC3b (construct PM); not shown: twin-Strep, C-terminal, cleaved; His10, C-terminal, cleaved
B2: KCC1Δ19 (human potassium-chloride cotransporter KCC1, isoform A, N-terminally deleted, L20-S1085) (domain or fragment, UniProt Q9UP95 20-1085, looked up)
chain: LEGLSWVDYGERAELDDSDGHGNHRESSPFLSPLEASRGIDYYDRNLALFEEELDIRPKVSSLLGKLVSYTNLTQGAKEHEEAESGEGTRRRAAEAPSMGTLMGVYLPCLQNIFGVILFLRLTWMVGTAGVLQALLIVLICCCCTLLTAISMSAIATNGVVPAGGSYFMISRSLGPEFGGAVGLCFYLGTTFAAAMYILGAIEILLTYIAPPAAIFYPSGAHDTSNATLNNMRVYGTIFLTFMTLVVFVGVKYVNKFASLFLACVIISILSIYAGGIKSIFDPPVFPVCMLGNRTLSRDQFDICAKTAVVDNETVATQLWSFFCHSPNLTTDSCDPYFMLNNVTEIPGIPGAAAGVLQENLWSAYLEKGDIVEKHGLPSADAPSLKESLPLYVVADIATSFTVLVGIFFPSVTGIMAGSNRSGDLRDAQKSIPVGTILAIITTSLVYFSSVVLFGACIEGVVLRDKYGDGVSRNLVVGTLAWPSPWVIVIGSFFSTCGAGLQSLTGAPRLLQAIAKDNIIPFLRVFGHGKVNGEPTWALLLTALIAELGILIASLDMVAPILSMFFLMCYLFVNLACAVQTLLRTPNWRPRFKYYHWALSFLGMSLCLALMFVSSWYYALVAMLIAGMIYKYIEYQGAEKEWGDGIRGLSLSAARYALLRLEEGPPHTKNWRPQLLVLLKLDEDLHVKYPRLLTFASQLKAGKGLTIVGSVIQGSFLESYGEAQAAEQTIKNMMEIEKVKGFCQVVVASKVREGLAHLIQSCGLGGMRHNSVVLGWPYGWRQSEDPRAWKTFIDTVRCTTAAHLALLVPKNIAFYPSNHERYLEGHIDVWWIVHDGGMLMLLPFLLRQHKVWRKCRMRIFTVAQMDDNSIQMKKDLAVFLYHLRLEAEVEVVEMHNSDISAYTYERTLMMEQRSQMLRQMRLTKTEREREAQLVKDRHSALRLESLYSDEEDESAVGADKIQMTWTRDKYMTETWDPSHAPDNFRELVHIKPDQSNVRRMHTAVKLNEVIVTRSHDARLVLLNMPGPPRNSEGDENYMEFLEVLTEGLERVLLVRGGGREVITIYS
modifications: phosphoserine at S88, S734 and S1050 (by proteomics analysis); not phosphorylated at T926/T983
notes: KCC1 (SLC12A4), human, isoform A, residues L20-S1085; Cloned into the pHTBV vector with and without GFP; also called KCC1 (construct Δ19); Δ19-deleted human KCC1; not shown: twin-Strep, C-terminal, cleaved; His10, C-terminal, cleaved

Biological target: the molecule itself
Experiment: cryo-EM structure; single-particle cryo-EM of the purified transporter in digitonin, 150 mM NaCl, 20 mM HEPES pH 7.5 (KCC3b-PM also in KCl); homodimer

| Protein | stoichiometry N |
| --- | --- |
| B1 | 2 |
| B2 | 2 |
